Experiment [1] concerns the target T1, LGR7 (Homo sapiens, UniProt Q9HBX9).
T1 construct: HEK293T cells stably expressing recombinant LGR7 or LGR8; expressed in transfected cells
T1 sequence (Q9HBX9 1-757): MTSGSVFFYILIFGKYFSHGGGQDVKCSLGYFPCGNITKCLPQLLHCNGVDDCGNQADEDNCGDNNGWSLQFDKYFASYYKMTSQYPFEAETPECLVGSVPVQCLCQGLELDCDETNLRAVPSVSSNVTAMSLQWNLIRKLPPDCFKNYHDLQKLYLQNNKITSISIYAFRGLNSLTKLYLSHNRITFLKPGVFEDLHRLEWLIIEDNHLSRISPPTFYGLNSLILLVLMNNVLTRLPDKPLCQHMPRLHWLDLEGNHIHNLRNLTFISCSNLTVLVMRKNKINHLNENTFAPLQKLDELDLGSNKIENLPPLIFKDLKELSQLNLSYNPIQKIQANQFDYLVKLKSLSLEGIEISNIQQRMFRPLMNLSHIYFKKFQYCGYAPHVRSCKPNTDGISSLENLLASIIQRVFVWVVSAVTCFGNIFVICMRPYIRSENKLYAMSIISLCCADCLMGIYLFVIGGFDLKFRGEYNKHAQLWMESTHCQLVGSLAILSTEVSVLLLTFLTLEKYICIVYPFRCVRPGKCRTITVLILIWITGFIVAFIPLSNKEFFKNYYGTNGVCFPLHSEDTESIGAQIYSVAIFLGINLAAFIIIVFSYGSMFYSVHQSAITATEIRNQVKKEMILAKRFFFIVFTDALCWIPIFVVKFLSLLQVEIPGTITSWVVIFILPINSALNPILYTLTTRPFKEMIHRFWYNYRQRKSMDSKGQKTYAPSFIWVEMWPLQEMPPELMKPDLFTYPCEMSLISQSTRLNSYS
The experiment in a line: Receptor-activation analysis: cAMP production in LGR7-expressing HEK293T cells. Format: cell-based. The note with it: for LGR7-activation activity (result in words): LGR7-expressing HEK293T cells. As to the method: (§1) The bioactivity of relaxin family peptides was determined based on the stimulation of adenylate cyclase activity in HEK293T cells stably expressing recombinant LGR7 or LGR8. Stable LGR7- or LGR8-expressing cells were maintained in Dulbecco's modified Eagle's medium/F-12 media supplemented with […] Zeocin (Invitrogen). After seeding at a density of 2×10^5 cells per well in 500 μl of Dulbecco's modified Eagle's medium/F-12 medium containing 0.1% bovine serum albumin in 48-well plates, cells were preincubated at 37° C. for 30 min in the presence of 0.25 mM 3-isobutyl-1-methylxanthine before treatment with increasing concentrations of peptides (from 0 to 100 nM) in quadruplicate. Twelve hours after treatment, the culture was reacted with acetic anhydride/triethylamine, and total cAMP content in cell lysates was measured using a specific cAMP radioimmunoassay. A nontagged human RLN2 peptide was used as a standard to verify the bioactivity of tagged RLN2 peptides.
(§2) Receptor-activation and receptor binding activity curves generated in nonlinear regression analyses (Prism; GraphPad Software, San Diego, Calif.) were evaluated relative to the samples without hormone treatment. In all cases data are reported as the mean±S.E. of assays in triplicate or quadruplicate. Statistically significant responses (p<0.05) were determined for each stimulated response to the average nonspecific response from control samples using analysis of variance and Student's t test.
(In general: Cyclic AMP is a second messenger, typically raised through Gs and lowered through Gi signalling.)

Experiment [2] concerns the target T2, LGR8 (Homo sapiens, UniProt Q8WXD0).
T2 construct: HEK293T cells stably expressing recombinant LGR7 or LGR8; expressed in transfected cells
Nature of the experiment: Receptor-activation analysis: cAMP production in LGR8-expressing HEK293T cells. As to conditions: for LGR8-activation activity (result in words): LGR8-expressing HEK293T cells. The experiment is classed as cell-based. As to the method:
as §1, §2

The target in experiment [3] is T1, LGR7. Nature of the experiment: Receptor-binding assay: competition for 125I-labeled RLN2 binding to LGR7-expressing HEK293T cells. The note with it: for LGR7-binding activity (result in words): competition for labeled RLN2 binding to LGR7. As to the method: (§3) To determine the binding characteristics of wild type and mutant peptides, HEK293T cells expressing LGR7 or LGR8 were grown to 90% confluence, collected by centrifugation at 3000×g for 2 min, and washed two times in 2 ml of ice-cold binding buffer. Cells were resuspended in ice-cold binding buffer, and aliquots of cell suspension were incubated with increasing doses of purified recombinant peptides in the presence of 0.025 pmol of ^125I-labeled RLN2 tracer (Phoenix Pharmaceuticals, Burlingame, Calif.) at room temperature for 2 h. After washing three times in an ice-cold binding buffer, radioactivity bound to the cells was measured using a γ-counter (EG&G Wallace, Gaithersburg, Md.). Total binding was determined in the absence, and nonspecific binding in the presence, of 25 nmol of unlabeled RLN2. In regular assays, total binding was ˜30,000 cpm, and nonspecific binding amounted to less than 20% of the total binding. Data points were collected in triplicate, and similar results were obtained in at least two independent assays.
as §2

The target of experiment [4] is T2, LGR8. The experiment in a line: Receptor-binding assay: competition for 125I-labeled RLN2 binding to LGR8-expressing HEK293T cells. The note with it: for LGR8-binding activity (result in words): competition for labeled RLN2 binding to LGR8. The procedure:
as §3, §2

Entries after “also recorded” stand apart in the source; their conditions may differ. Where no end group is shown, it is not given here.

T2 sequence (Q8WXD0 whole entry): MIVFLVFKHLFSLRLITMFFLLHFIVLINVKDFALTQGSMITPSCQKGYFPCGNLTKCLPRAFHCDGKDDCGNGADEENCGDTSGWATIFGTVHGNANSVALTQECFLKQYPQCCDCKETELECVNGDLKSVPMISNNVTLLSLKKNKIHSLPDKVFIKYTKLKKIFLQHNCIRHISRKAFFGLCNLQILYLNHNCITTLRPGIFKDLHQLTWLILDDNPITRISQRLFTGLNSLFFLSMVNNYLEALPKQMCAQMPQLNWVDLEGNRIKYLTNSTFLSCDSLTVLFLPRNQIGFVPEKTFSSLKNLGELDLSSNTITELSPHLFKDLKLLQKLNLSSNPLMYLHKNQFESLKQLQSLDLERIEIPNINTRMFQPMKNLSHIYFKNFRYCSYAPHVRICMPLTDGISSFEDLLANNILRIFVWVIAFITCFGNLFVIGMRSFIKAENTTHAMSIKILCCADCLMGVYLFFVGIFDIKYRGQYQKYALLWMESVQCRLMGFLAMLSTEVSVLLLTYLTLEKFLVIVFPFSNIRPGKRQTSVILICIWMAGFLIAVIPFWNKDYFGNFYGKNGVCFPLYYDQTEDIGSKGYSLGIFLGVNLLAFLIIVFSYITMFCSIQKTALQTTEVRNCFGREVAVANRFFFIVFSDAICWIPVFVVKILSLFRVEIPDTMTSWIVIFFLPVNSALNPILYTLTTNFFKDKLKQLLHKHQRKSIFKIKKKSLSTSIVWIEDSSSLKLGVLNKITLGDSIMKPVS

As to “RLN2 P^A23A: RLN2 mutant with alanine substitution at the PheA23 position (chain 1 SWMEEVIKLCGRELVRAQIAICGMSTWSHHHHHH; chain 2 QLYSALANKCCHVGCTKRSLARAC; not fully specified; ends and bridges not checked)”, the “LGR7-activation activity (result in words)” value (shortened to “LGR7-activation activity”) is recorded as “preferentially activate LGR7” in the experiment with LGR7 [1] (listed as FA23A) and “retains an LGR7-activation activity similar to that of wild type peptides” in the experiment with LGR7 [1] (listed as RLN2 FA23A). Besides, the “LGR8-activation activity (result in words)” value (from here on “LGR8-activation activity”) is reported as “lacks an LGR8-activation activity” in the experiment with LGR8 [2] (listed as RLN2 FA23A) and “ablated” with LGR8 [2] (listed as RLN2 F^A23A). In addition, the entries for the “LGR7-binding activity (result in words)” value with LGR7 [3] (listed as RLN2 FA23A) and with LGR7 [3] (listed as RLN2 F^A23A) were “affinities similar to that of wild type peptides” and “without an effect on LGR7-binding activity”, respectively. Besides, the results for the “LGR8-binding activity (result in words)” value with LGR8 [4] (listed as RLN2 FA23A) and in the experiment with LGR8 [4] (listed as RLN2 F^A23A) were “significantly reduced the affinity for LGR8” and “significantly reduced”, respectively.
“RLN2 R^A22A: RLN2 mutant with alanine substitution at the ArgA22 position (chain 1 SWMEEVIKLCGRELVRAQIAICGMSTWSHHHHHH; chain 2 QLYSALANKCCHVGCTKRSLAAFC; not fully specified; ends and bridges not checked)”: the “LGR7-activation activity” value in the experiment with LGR7 [1] is reported as “minimal effect”. In the experiment with LGR8 [2], the “LGR8-activation activity” value is given as “minimal effect”. For the same molecule, the “LGR7-binding activity (result in words)” value with LGR7 [3] was “affinities similar to that of wild type peptides”.
Regarding “RLN2^A22-23: RLN2 mutant with alanine substitution at the A22-23 region of the A chain (chain 1 SWMEEVIKLCGRELVRAQIAICGMSTWSHHHHHH; chain 2 QLYSALANKCCHVGCTKRSLAAAC; not fully specified; ends and bridges not checked)”, the “LGR8-activation activity” value with LGR8 [2] is reported as “ablates LGR8, but not LGR7, activation activity; also recorded: almost abolished”. The “LGR7-binding activity (result in words)” value with LGR7 [3] is listed as “reduced affinity for LGR7”. In the experiment with LGR8 [4], the “LGR8-binding activity (result in words)” value was “lost its LGR8-binding activity”.

B1: WT RLN2: recombinant tagged wild type human relaxin H2 (RLN2) (protein, listed as Homo sapiens)
chain: MPRLFFFHLLGVCLLLNQFSRAVADSWMEEVIKLCGRELVRAQIAICGMSTWSKRSLSQEDAPQTPRPVAEIVPSFINKDTETINMMSEFVANLPQELKLTLSEMQPALPQLQQHVPVLKDSSLLFEEFKKLIRNRQSEAADSSPSELKYLGLDTHSRKKRQLYSALANKCCHVGCTKRSLARFC
modifications: tag; RLN2 polypeptide
Take B1: the “pEC50 on the activation of LGR7” value in the experiment with LGR7 [1] (HEK293T cells stably expressing LGR7, mean ± S.E., ND = pEC50 not measurable) came to 9.30 ± 0.04. Moreover, in the experiment with LGR7 [1], the “LGR7-activation activity” value is listed as “activates both receptors at the nanomolar range”. For the same molecule, the “pEC50 on the activation of LGR8” value with LGR8 [2] (HEK293T cells stably expressing LGR8, mean ± S.E., ND = pEC50 not measurable) is on record as 7.41 ± 0.14. Further, the “LGR8-activation activity” value with LGR8 [2] is “activates both receptors at the nanomolar range”. For the same molecule, the “pIC50 in competition for RLN2 binding to LGR7” value with LGR7 [3] (125I-labeled RLN2 tracer, LGR7-expressing HEK293T cells, mean ± S.E.) stood at 8.72 ± 0.06. For the same molecule, in the experiment with LGR8 [4] (125I-labeled RLN2 tracer, LGR8-expressing HEK293T cells, mean ± S.E., ND = pIC50 not measurable), the “pIC50 in competition for RLN2 binding to LGR8” value worked out at 7.90 ± 0.16.
